Measurements: patent EP1068241B1

Experiments:
human C1q (human) [1] = target: human C1q (human) (UniProt P02745); experiment: C1q binding ELISA
human C1q (human) [2] = target: human C1q (human) (UniProt P02745); experiment: cell-based or functional assay
CD20 antigen = CD20 antigen (UniProt P11836); experiment: flow cytometry on WIL2-S cells
[3] = target: FcγRI α subunit-GST fusion (UniProt P12314); experiment: ELISA on coated FcγRI α subunit-GST fusion, IgG at 10 µg/ml
[4] = target: FcγRIIIa α subunit ECD-6His-GST fusion protein (UniProt P08637); experiment: ELISA, E27:chimeric IgE:VEGF immune complex on coated receptor
Chain of FcγRIIIa α subunit ECD-6His-GST fusion protein (P08637 other isoform, or with tags, fused parts or gaps): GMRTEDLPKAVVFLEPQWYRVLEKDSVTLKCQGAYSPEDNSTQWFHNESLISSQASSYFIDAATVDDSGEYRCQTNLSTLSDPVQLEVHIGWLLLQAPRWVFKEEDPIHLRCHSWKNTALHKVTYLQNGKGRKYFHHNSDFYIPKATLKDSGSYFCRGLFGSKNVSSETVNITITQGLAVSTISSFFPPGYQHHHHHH

[5] = target: FcγRIIa α subunit ECD-6His-GST fusion protein (UniProt P12318); experiment: as above
Chain of FcγRIIa α subunit ECD-6His-GST fusion protein (P12318 other isoform, or with tags, fused parts or gaps): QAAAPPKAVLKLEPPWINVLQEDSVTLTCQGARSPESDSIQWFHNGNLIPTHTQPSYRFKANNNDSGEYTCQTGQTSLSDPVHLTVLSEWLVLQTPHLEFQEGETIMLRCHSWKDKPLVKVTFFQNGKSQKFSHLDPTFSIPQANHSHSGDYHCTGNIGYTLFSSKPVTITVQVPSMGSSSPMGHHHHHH

[6] = target: FcγRIIb α subunit ECD-6His-GST fusion protein (UniProt P31994); experiment: as above
Chain of FcγRIIb α subunit ECD-6His-GST fusion protein (P31994 other isoform, or with tags, fused parts or gaps): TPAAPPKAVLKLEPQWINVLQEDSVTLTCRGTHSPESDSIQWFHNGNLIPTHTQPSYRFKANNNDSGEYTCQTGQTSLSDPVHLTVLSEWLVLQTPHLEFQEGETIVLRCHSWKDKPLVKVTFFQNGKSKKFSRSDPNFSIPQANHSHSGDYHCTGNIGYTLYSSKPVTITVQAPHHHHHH

Chain of CD20 antigen (P11836 whole entry, the tested form may be a part): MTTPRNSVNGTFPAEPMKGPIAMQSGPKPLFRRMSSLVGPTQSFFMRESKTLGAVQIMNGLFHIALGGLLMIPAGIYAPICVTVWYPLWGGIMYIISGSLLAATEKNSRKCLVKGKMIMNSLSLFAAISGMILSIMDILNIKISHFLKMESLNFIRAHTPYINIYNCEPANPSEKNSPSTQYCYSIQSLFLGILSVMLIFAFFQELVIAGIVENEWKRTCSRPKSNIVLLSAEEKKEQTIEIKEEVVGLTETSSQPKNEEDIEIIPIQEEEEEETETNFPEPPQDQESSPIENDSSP
Chain of FcγRI α subunit-GST fusion (P12314 other isoform, or with tags, fused parts or gaps): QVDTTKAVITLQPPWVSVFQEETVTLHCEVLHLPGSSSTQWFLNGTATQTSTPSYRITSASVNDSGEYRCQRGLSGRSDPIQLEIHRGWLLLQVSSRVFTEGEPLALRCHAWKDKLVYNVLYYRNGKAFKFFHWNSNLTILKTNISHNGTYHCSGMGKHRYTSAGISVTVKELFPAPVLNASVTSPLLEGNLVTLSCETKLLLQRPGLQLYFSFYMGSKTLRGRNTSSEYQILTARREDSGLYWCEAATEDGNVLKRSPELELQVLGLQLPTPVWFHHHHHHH
Chain of human C1q (human) (P02745 23-245 limits assumed, chain 1 of 3): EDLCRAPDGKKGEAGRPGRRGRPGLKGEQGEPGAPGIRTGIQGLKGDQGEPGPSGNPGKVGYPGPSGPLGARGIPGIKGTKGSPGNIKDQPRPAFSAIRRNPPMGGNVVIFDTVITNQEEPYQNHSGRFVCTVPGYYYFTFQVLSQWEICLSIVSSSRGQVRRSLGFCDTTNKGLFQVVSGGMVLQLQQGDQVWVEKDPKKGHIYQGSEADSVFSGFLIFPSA
Chain of human C1q (human) (P02746 28-253 limits assumed, chain 2 of 3, further chain): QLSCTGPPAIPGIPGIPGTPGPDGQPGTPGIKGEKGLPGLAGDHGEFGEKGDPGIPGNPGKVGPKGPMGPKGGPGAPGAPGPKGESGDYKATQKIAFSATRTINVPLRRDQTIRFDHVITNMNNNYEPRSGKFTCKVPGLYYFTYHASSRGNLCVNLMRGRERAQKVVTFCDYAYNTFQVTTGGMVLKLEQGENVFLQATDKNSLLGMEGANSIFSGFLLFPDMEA
Chain of human C1q (human) (P02747 29-245 limits assumed, chain 3 of 3, further chain): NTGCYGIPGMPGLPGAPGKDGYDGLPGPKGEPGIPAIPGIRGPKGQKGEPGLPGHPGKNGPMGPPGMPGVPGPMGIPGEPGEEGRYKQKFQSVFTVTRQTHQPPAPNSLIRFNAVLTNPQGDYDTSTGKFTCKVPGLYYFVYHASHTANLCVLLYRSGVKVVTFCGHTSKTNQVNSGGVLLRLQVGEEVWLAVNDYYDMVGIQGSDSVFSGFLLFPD

Substance | decrease in binding against wild type C2B8 (human C1q (human) [1]) [%] | CDC (percentage of the wild type) (human C1q (human) [2]) [%] | EC50 as percentage of the wild type (CD20 antigen) [%] | fold lower binding than wild type C2B8 (human C1q (human) [1]) [fold] | binding as percentage of the wild type [3] [%] | binding as percentage of the wild type [4] [%] | binding as percentage of the wild type [5] [%] | binding as percentage of the wild type [6] [%]
C2B8 mutant E318A (antibody) | 30 | 108 | 89 |  |  |  |  | 
C2B8 mutant K320A (antibody) |  | 108 | 102 |  |  |  |  | 
C2B8 mutant P329A (antibody) |  |  | 112 |  |  |  |  | 
C2B8 mutant P331A (antibody) |  |  | 103 | 60 |  |  |  | 
E27 anti-IgE antibody mutant E318A |  |  |  |  | 93 | 104 | 113 | 106
E27 anti-IgE antibody mutant K320A |  |  |  |  | 102 | 72 |  | 83
E27 anti-IgE antibody mutant K322A |  |  |  |  | 90 | 90 | 109 | 101
E27 anti-IgE antibody mutant P329A |  |  |  |  | 104 | 85 |  | 
E27 anti-IgE antibody mutant P331A |  |  |  |  | 74 | 73 | 86 | 58
wild type E27 anti-IgE antibody |  |  |  |  | 100 | 100 | 100 | 100
